From US20140134170A1, “USE OF INHIBITORS OF EGFR-FAMILY RECEPTORS IN THE TREATMENT OF HORMONE REFRACTORY BREAST CANCERS” (MERRIMACK PHARMACEUTICALS, INC., priority 2011, published 2014)

Legend:
MCF-7CA tumors = test: Letrozole-resistant MCF-7CA intratumoral aromatase xenograft model; type: in vivo, mice; settings: for tumor growth during initial treatment: MM-121 600 μg Q3D i.p., letrozole 10 μg/mouse/day, treatment from the start; for tumor volume after acquired letrozole resistance: letrozole-resistant tumors re-grouped at about 14 weeks, followed to 19 weeks
Method: To investigate the mechanism of AI resistance, a xenograft model was developed that corresponds to ER+ postmenopausal breast cancer. Tumors for this intratumoral aromatase xenograft model are grown from MCF7 human breast adenocarcinoma cells that have been stably transfected with a human placental aromatase gene to provide a non-ovarian source of estrogen production in ovariectomized athymic mice (MCF-7CA, see e.g. Brodie et al., Clinical Cancer Research 884s Vol. 11, 884s-888s, Jan. 15, 2005 (Suppl.)). Sufficient estrogen is produced (from aromatization of injected androstenedione) by the MCF7-CA cells to stimulate their proliferation and tumor formation. This is a model of a postmenopausal breast cancer patient with tumors that express aromatase and are free of gonadotropin feedback regulation.
MCF-7CA cells were cultured in Eagle's minimum essential medium containing 5% fetal bovine serum and neomycin. The culture medium was changed twice weekly. Subconfluent MCF-7CA cells were scraped into Hank's solution and centrifuged at 1,000 rpm for 2 min at 4° C. The cells were then resuspended in Matrigel™ (10 mg/ml) to make a cell suspension of 2-5×10^7 cells/ml. Ovariectomized female BALB/c athymic mice 4-6 weeks of age (20-22 g body weight) were housed in a pathogen-free environment under controlled conditions of light and humidity and received food and water ad libitum. Each mouse was inoculated subcutaneously (s.c.) with 0.1 ml of the cell suspension. Animals were then injected s.c. daily with 0.1 mg androstenedione/mouse. Growth rates were determined by measuring the tumors with calipers weekly. Tumor volumes were calculated according to the formula for a sphere (4/3 r12. r 2). When tumors reached a measurable size, mice were divided into groups of 10 animals with equivalent tumor volumes (300 mm^3). Mice were treated with 0.1 ml compounds in 0.3% hydroxypropylcellulose (HPC) for 6 weeks.
Tumors were measured weekly and tumor volume was calculated. Mice were sacrificed if tumors continued to grow to volumes of greater than about 1400-1700 mm^3.

ErbB3 (pErbB3) = target: T1, ErbB3 (pErbB3) (Homo sapiens, UniProt P21860); test: Western blot for phosphorylated ErbB3 in ligand-stimulated MCF7 cells; type: cell-based; settings: for phosphorylation of ErbB3 in stimulated cells: MCF7 cells without MM-121, stimulated 30 minutes, betacellulin relative to heregulin
T1 construct: endogenous in cells; host or cells: MCF7
Method: (§1) FIG. 1 comprises images of western blots of a gel of lysates from untreated control cells (“C”), cells pretreated with (“MM121”) or without pretreatment with MM-121 that were stimulated with heregulin beta 1 (“HRG”), betacellulin (“BTC”), or estrogen (“E2”).
(§2) MCF7 cells are either untreated or pretreated with MM-121 (250 nM) for 1 hour. Cells are then stimulated with heregulin betal (EGF domain, 10 nM R&D systems), betacellulin (20 nM, R&D systems) or estrogen (beta estradiol—100 nM, Sigma) for 30 minutes, or left unstimulated. Lysates of the cells are analyzed by western blot probed for pER and for pErbB3.
(§3) Cells were either untreated or pretreated with MM-121. Untreated and pretreated cells were stimulated with heregulin, betacellulin, or estrogen. Cell lysates were analyzed by western blot for phosphorylated forms of ErbB3 and estrogen receptor.

[1] = test system: estrogen receptor alpha (pER, ser 167 and ser 118); test: Western blot/densitometry for phosphorylated estrogen receptor in ligand-stimulated MCF7 cells; type: cell-based, human; settings: for phosphorylation of the estrogen receptor in stimulated cells: MCF7 cells without MM-121, stimulated 30 minutes, betacellulin relative to heregulin
Excerpt: as §1
FIG. 2 is a graph showing densitometry results from the relevant (pER) band in each of the control (“Con.”), heregulin (“HRG”), betacellulin (“BTC”), heregulin plus MM-121 (“HRG+MM121”) and betacellulin plus MM-121 (“BTC+MM121”) lanes in FIG. 1. Band density was normalized to GAPDH density and the normalized density (Y-axis) is shown for control and stimulated cells (both with and without MM-121 pretreatment) as indicated on the X-axis. The arrowhead between the HRG and BTC lanes indicates the pER band in the HRG lane.
as §2, §3

[2] = test system: TAMR-1, TAMR-7, or TAMR-8 cells (tamoxifen-resistant human mammary carcinoma xenografts); test: Tamoxifen-resistant MCF7 variant xenografts, MM-121 monotherapy; type: in vivo; settings: 600 μg per mouse IP every three days; TAMR xenografts in nude mice
Method: Analyses of the anti-tumor efficacy and tolerability of MM-121 treatment of ER+ hormone refractory mammary tumor-bearing mice are carried out using xenografts of tamoxifen-resistant variants of MCF7 human mammary carcinoma cells. Tamoxifen-resistant human mammary carcinoma cell lines TAMR-1, TAMR-7, and TAMR-8 cells are obtained from the laboratory of A. E. Lykkesfeldt (Department of Tumor Endocrinology, Division for Cancer Biology, Danish Cancer Society. Strandboulevarden 49, DK-2100 Copenhagen 0, Denmark). These are grown as xenografts in female athymic nu+/nu+ nude mice obtained from Charles River Laboratories International. […]
To investigate anti-tumor efficacy in monotherapy, MM-121 or vehicle control (100 μL) is given to tumor-bearing mice (i.e., after 14 days of tumor growth following injection of cells) at 600 μg per mouse (MM-121 as a 6 mg/mL solution in PBS) by IP injection every three days. […] Efficacy is determined by comparing tumor growth between the antibody-treated mice and the vehicle control mice and is expressed as the experimental to control ratio of median relative tumor volumes (T/C value). […]
Mice are randomized and therapy begins when a sufficient number of individual tumors have grown to a volume of approximately 200 mm^3. Tumors are measured (L x W) by digital caliper measurement and the tumor volume is calculated using the formula π/6 (W^2×L). […]

For N#Cc1ccc(C(c2ccc(C#N)cc2)n2cncn2)cc1 [letrozole], the “tumor growth during initial treatment” value (MCF-7CA tumors) was “progressed more slowly”, the “time to letrozole resistance (tumor volume increased to 600 mm^3)” value (MCF-7CA tumors; daily letrozole 10 μg/mouse/day) was “about 14 weeks” and the “tumor volume after acquired letrozole resistance” value (MCF-7CA tumors) was “continued to increase in volume over time”.

For “betacellulin: betacellulin (R&D systems), EGF-like stimulating ligand”, the “phosphorylation of ErbB3 in stimulated cells” value (ErbB3 (pErbB3)) was “to a lesser extent (about ⅔ less)” and the “phosphorylation of the estrogen receptor in stimulated cells” value [1] was “to a lesser extent (about ⅔ less)”.

In the case of “heregulin: heregulin beta 1 (EGF domain, R&D systems), stimulating ligand”, the “phosphorylation of ErbB3 in stimulated cells” value (ErbB3 (pErbB3)) is reported as “exhibited phosphorylation of both the estrogen receptor and ErbB3”, the “phosphorylation of the estrogen receptor in stimulated cells” value [1] is reported as “exhibited phosphorylation of both the estrogen receptor and ErbB3” and the “level of ER phosphorylation relative to estrogen stimulation” value ([1]; MCF7 cells, heregulin 10 nM vs beta estradiol 100 nM, 30 minutes) is reported as “at least four-fold”.

B1: MM-121: fully human anti-ErbB3 monoclonal antibody; VH and VL SEQ ID NOs: 1 and 2; heavy and light chains SEQ ID NOs 42 and 43 (antibody, listed as Homo sapiens)
heavy: EVQLLESGGGLVQPGGSLRLSCAASGFTFSHYVMAWVRQAPGKGLEWVSSISSSGGWTLYADSVKGRFTISRDNSKNTLYLQMNSLRAEDTAVYYCTRGLKMATIFDYWGQGTLVTVSSASTKGPSVFPLAPCSRSTSESTAALGCLVKDYFPEPVTVSWNSGALTSGVHTFPAVLQSSGLYSLSSVVTVPSSNFGTQTYTCNVDHKPSNTKVDKTVERKCCVECPPCPAPPVAGPSVFLFPPKPKDTLMISRTPEVTCVVVDVSHEDPEVQFNWYVDGVEVHNAKTKPREEQFNSTFRVVSVLTVVHQDWLNGKEYKCKVSNKGLPAPIEKTISKTKGQPREPQVYTLPPSREEMTKNQVSLTCLVKGFYPSDIAVEWESNGQPENNYKTTPPMLDSDGSFFLYSKLTVDKSRWQQGNVFSCSVMHEALHNHYTQKSLSLSPGK
light: QSALTQPASVSGSPGQSITISCTGTSSDVGSYNVVSWYQQHPGKAPKLIIYEVSQRPSGVSNRFSGSKSGNTASLTISGLQTEDEADYYCCSYAGSSIFVIFGGGTKVTVLGQPKAAPSVTLFPPSSEELQANKATLVCLVSDFYPGAVTVAWKADGSPVKVGVETTKPSKQSNNKYAASSYLSLTPEQWKSHRSYSCRVTHEGSTVEKTVAPAECS
For B1, the “tumor growth during initial treatment” value (MCF-7CA tumors) was “grew rapidly over the course of 5 weeks”, the “tumor volume after acquired letrozole resistance” value (MCF-7CA tumors) was “continued to increase in volume over time” and the “reduction in the amount of pErbB3” value (ErbB3 (pErbB3); MCF7 cells pretreated with MM-121 250 nM for 1 hour, heregulin 10 nM for 30 minutes) was “about ⅔”. The tumor growth [2] was “inhibits or stops tumor growth, and in some cases reduces tumor size” and the “reduction in the amount of pER” value ([1]; MCF7 cells pretreated with MM-121 250 nM for 1 hour, heregulin 10 nM for 30 minutes, densitometry normalized to GAPDH) was “about ⅔”.
